Molecular target: Gluc2-VP3 BTV8 (pSPICA-N2-VP3 BTV8)
Test: split reporter (BiFC, NanoBiT)

Gluc1-MAVS (pSPICA-N1 human MAVS) (from UniProt Q7Z434 1-540) (natural protein)
NLR (normalized luminescence ratio): 17.4

B1: Gluc1-IKKε (pSPICA-N1 human IKKε) (natural protein)
chain: MQSTANYLWHTDDLLGQGATASVYKARNKKSGELVAVKVFNTTSYLRPREVQVREFEVLRKLNHQNIVKLFAVEETGGSRQKVLVMEYCSSGSLLSVLESPENAFGLPEDEFLVVLRCVVAGMNHLRENGIVHRDIKPGNIMRLVGEEGQSIYKLTDFGAARELDDDEKFVSVYGTEEYLHPDMYERAVLRKPQQKAFGVTVDLWSIGVTLYHAATGSLPFIPFGGPRRNKEIMYRITTEKPAGAIAGAQRRENGPLEWSYTLPITCQLSLGLQSQLVPILANILEVEQAKCWGFDQFFAETSDILQRVVVHVFSLSQAVLHHIYIHAHNTIAIFQEAVHKQTSVAPRHQEYLFEGHLCVLEPSVSAQHIAHTTASSPLTLFSTAIPKGLAFRDPALDVPKFVPKVDLQADYNTAKGVLGAGYQALRLARALLDGQELMFRGLHWVMEVLQATCRRTLEVARTSLLYLSSSLGTERFSSVAGTPEIQELKAAAELRSRLRTLAEVLSRCSQNITETQESLSSLNRELVKSRDQVHEDRSIQQIQCCLDKMNFIYKQFKKSRMRPGLGYNEEQIHKLDKVNFSHLAKRLLQVFQEECVQKYQASLVTHGKRMRVVHETRNHLRLVGCSVAACNTEAQGVQESLSKLLEELSHQLLQDRAKGAQASPPPIAPYPSPTRKDLLLHMQELCEGMKLLASDLLDNNRIIERLNRVPAPPDV
NLR (normalized luminescence ratio): 17.7
